Assay results reported in patent US20040138122A1.

Legend:
Test in all cases: cell-based or functional assay
[1] = molecular target: T1, zcyto20 (human IL-28A) (human) (UniProt Q8IZJ0)
T1 sequence: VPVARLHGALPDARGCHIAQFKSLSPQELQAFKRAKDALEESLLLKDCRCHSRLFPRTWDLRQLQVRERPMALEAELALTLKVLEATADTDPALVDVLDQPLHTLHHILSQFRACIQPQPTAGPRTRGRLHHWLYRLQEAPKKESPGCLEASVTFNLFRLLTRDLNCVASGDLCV

[2] = molecular target: zcyto21 (human IL-29) (human) (UniProt Q8IU54)
[3] = molecular target: T2, zcyto24 (mouse IL-28A) (mouse) (UniProt Q4VK74)
T2 sequence: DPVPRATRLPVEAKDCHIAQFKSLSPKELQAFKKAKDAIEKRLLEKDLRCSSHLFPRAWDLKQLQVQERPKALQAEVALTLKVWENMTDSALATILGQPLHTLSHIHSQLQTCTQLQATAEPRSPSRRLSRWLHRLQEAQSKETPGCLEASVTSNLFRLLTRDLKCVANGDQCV

Chain of zcyto21 (human IL-29) (human) (Q8IU54 20-200): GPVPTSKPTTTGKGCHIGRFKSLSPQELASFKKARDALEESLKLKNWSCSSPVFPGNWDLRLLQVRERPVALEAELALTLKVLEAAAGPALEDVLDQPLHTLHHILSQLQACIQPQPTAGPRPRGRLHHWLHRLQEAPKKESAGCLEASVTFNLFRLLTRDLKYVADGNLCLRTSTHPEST

Percent Inhibition of Ligand-induced Interferon Stimulated Response Element (ISRE) Signaling by Soluble Receptors [1]: 92% | Percent Inhibition of Ligand-induced Interferon Stimulated Response Element (ISRE) Signaling by Soluble Receptors [2]: 45% | Percent Inhibition of Ligand-induced Interferon Stimulated Response Element (ISRE) Signaling by Soluble Receptors [3]: 90%
B1: human zcytor19-Fc homodimer (Fc fusion, not shown: a dimerising Fc or GST)
chain: RPRLAPPQNVTLLSQNFSVYLTWLPGLGNPQDVTYFVAYQSSPTRRRWREVEECAGTKELLCSMMCLKKQDLYNKFKGRVRTVSPSSKSPWVESEYLDYLFEVEPAPPVLVLTQTEEILSANATYQLPPCMPPLDLKYEVAFWKEGAGNKTLFPVTPHGQPVQITLQPAASEHHCLSARTIYTFSVPKYSKFSKPTCFLLEVPEAN
